Consider one substance from article PMC7051176.

The assay has as its target mannose receptor (MR) (human (endogenous in primary monocyte-derived macrophages)) (UniProt P22897).

In the case of “HIV-1 89.6 Env (from UniProt Q73372) (natural protein)”, the infection of primary human MDM by wild-type HIV-1 89.6 (intracellular Gag stain) with increasing concentrations of soluble mannan, normalized to 0 mg/mL mannan is 16 fold.
